Assay results reported in US11472877 (Alector, dated 2022).
Substitutions are numbered along the chain they refer to.

Columns and labels:
human TREM2 on BWZ cells = target: T1, human TREM2 on BWZ cells (human, UniProt Q9NZC2 19-230); assay: FACS, BWZ cells
T1 construct: whole, on cells; not tied to the cell line; also called BWZ Human TREM2
T1 sequence (looked up): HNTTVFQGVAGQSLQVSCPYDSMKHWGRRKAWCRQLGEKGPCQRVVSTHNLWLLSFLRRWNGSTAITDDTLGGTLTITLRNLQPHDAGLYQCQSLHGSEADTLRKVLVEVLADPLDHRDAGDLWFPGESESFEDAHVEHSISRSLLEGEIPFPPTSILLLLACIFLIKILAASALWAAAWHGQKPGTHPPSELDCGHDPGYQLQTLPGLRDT

mouse TREM2 on BWZ cells = target: T2, mouse TREM2 on BWZ cells (mouse, UniProt Q99NH8 19-227); assay: FACS, BWZ cells
T2 construct: whole, on cells; also called BWZ Mouse TREM2
T2 sequence (looked up): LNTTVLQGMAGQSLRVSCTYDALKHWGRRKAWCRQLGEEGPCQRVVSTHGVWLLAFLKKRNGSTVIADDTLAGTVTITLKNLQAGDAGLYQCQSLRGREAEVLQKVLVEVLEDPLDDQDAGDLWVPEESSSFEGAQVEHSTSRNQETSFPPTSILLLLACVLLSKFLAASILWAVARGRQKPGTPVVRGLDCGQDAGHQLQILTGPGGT

B1: T1-72 (antibody, IgG1, V domains shown)
VH: EVQLVESGGGLVQPGRSLRLSCAASGFTFDDYAMHWVRQAPGKGLEWVSGISWNSGDIGYADSVKGRFTISRDNAKNSLYLQMNSLRAEDTALYYCAKGPRMTHSYFDLWGRGTLVTVSS
VL: not shown
notes: huIgG1; also called TI-72; ADI-19148
- binding result (human TREM2 on BWZ cells): no binding
- binding result (mouse TREM2 on BWZ cells): no binding

B2: T1-75 (antibody, IgG1, V domains shown)
VH: B1 VH with E1Q, G99A, M102T, T103R, H104W, S105T, L109Y, R112Q
VL: EIVLTQSPATLSLSPGERATLSCRASQSVSSYLAWYQQKPGQAPRLLIYDASNRATGIPARFSGSGSGTDFTLTISSLEPEDFAVYYCQHYNLWRTFGGGTKVEIK
notes: huIgG1; also called TI-75; ADI-19152
- binding result (human TREM2 on BWZ cells): no binding
- binding result (mouse TREM2 on BWZ cells): no binding

B3: T1-68 (antibody, IgG1, V domains shown)
VH: EVQLVQSGAEVKKPGESLKISCKGSGYSFTTYWIGWVRQMPGKGLEWMGIIYPGDSDTRYSPSFQGQVTISADKSISTAYLQWSSLKASDTAMYYCARGSPWDGRLFDIWGQGTMVTVSS
VL: EIVLTQSPATLSLSPGERATLSCRASQSVSSYLAWYQQKPGQAPRLLIYDASNRATGIPARFSGSGSGTDFTLTISSLEPEDFAVYYCQQFDNLPYTFGGGTKVEIK
notes: huIgG1; also called TI-68; ADI-19144
- binding result (human TREM2 on BWZ cells): no binding
- binding result (mouse TREM2 on BWZ cells): no binding

B4: T1-65 (antibody, IgG1, V domains shown)
VH: QLQLQESGPGLVKPSETLSLTCTVSGGSISSSDYYWGWIRQPPGKGLEWIGSIYYSGSTYYNPSLKSRVTISVDTSKNQFSLKLSSVTAADTAVYYCARDSGQYTGSLDVWGQGTMVTVSS
VL: not shown
notes: huIgG1; also called TI-65; ADI-19141
- binding result (human TREM2 on BWZ cells): no binding
- binding result (mouse TREM2 on BWZ cells): no binding

B5: T1-78 (antibody, IgG1, V domains shown)
VH: B4 VH with D33S, S101L, T105E, S107Y, L108F, V110L, Q113R, M116L
VL: not shown
notes: huIgG1; also called TI-78; ADI-19155
- binding result (human TREM2 on BWZ cells): no binding
- binding result (mouse TREM2 on BWZ cells): no binding

B6: T1-7 (antibody, IgG1, V domains shown)
VH: QVQLVQSGAEVKKPGASVKVSCKASGYTFTSYYMHWVRQAPGQGLEWMGIINPSGGSTSYAQKFQGRVTMTRDTSTSTVYMELSSLRSEDTAVYYCARGLIYGDAFDYWGQGTLVTVSS
VL: not shown
notes: huIgG1; also called TI-7; ADI-19073
- binding result (human TREM2 on BWZ cells): no binding
- binding result (mouse TREM2 on BWZ cells): no binding

B7: T1-61 (antibody, IgG1, V domains shown)
VH: QVQLQESGPGLVKPSETLSLTCAVSGYSISSGYYWGWIRQPPGKGLEWIGSIYHSGSTYYNPSLKSRVTISVDTSKNQFSLKLSSVTAADTAVYYCARHDDYLSSFDPWGQGTLVTVSS
VL: not shown
notes: huIgG1; also called TI-61; ADI-19137
- binding result (human TREM2 on BWZ cells): no binding
- binding result (mouse TREM2 on BWZ cells): no binding

B8: T1-69 (antibody, IgG1, V domains shown)
VH: QVQLVQSGAEVKKPGASVKVSCKASGYTFTSYGISWVRQAPGQGLEWMGWISAYNGNTNYAQKLQGRVTMTTDTSTSTAYMELRSLRSDDTAVYYCARGAGMYDGSPLGMDVWGQGTTVTVSS
VL: DIQMTQSPSSVSASVGDRVTITCRASQGISSWLAWYQQKPGKAPKLLIYAASNLQSGVPSRFSGSGSGTDFTLTISSLQPEDFATYYCQQATAHPPTFGGGTKVEIK
notes: huIgG1; also called TI-69; ADI-19145
- binding result (human TREM2 on BWZ cells): no binding
- binding result (mouse TREM2 on BWZ cells): no binding

B9: T1-70 (antibody, IgG1, V domains shown)
VH: QVQLVQSGAEVKKPGASVKVSCKASGYTFTSYGIHWVRQAPGQGLEWMGWISAYNGNTNYAQKLQGRVTMTTDTSTSTAYMELRSLRSDDTAVYYCARAGTIYGRLDLWGRGTLVTVSS
VL: B8 VL with M4L, G28D, N53S, T92V, A93S, P96L
notes: huIgG1; also called TI-70; ADI-19146
- binding result (human TREM2 on BWZ cells): no binding
- binding result (mouse TREM2 on BWZ cells): no binding

B10: T1-71 (antibody, IgG1, V domains shown)
VH: EVQLVESGGGLVQPGRSLRLSCAASGFTFGDYAMHWVRQAPGKGLEWVSGISWNSGSIGYADSVKGRFTISRDNAKNSLYLQMNSLRAEDTALYYCAKGPRRTSHLDIWGQGTMVTVSS
VL: B8 VL with S30D, N53S, A93S, H94L, P96L
notes: huIgG1; also called TI-71; ADI-19147
- binding result (human TREM2 on BWZ cells): no binding
- binding result (mouse TREM2 on BWZ cells): no binding

B11: T1-1 (antibody, IgG1, V domains shown)
VH: QVQLVQSGAEVKKPGSSVKVSCKASGGTFSSYAISWVRQAPGQGLEWMGGIIPIFGTANYAQKFQGRVTITADESTSTAYMELSSLRSEDTAVYYCARGQGSDHYYYGMDVWGQGTTVTVSS
VL: not shown
notes: huIgG1; also called TI-1; ADI-19067
- binding result (human TREM2 on BWZ cells): no binding
- binding result (mouse TREM2 on BWZ cells): no binding

B12: T1-67 (antibody, IgG1, V domains shown)
VH: QVQLVQSGAEVKKPGASVKVSCKASGYTFTSYGIHWVRQAPGQGLEWMGWISAYNGNTNYAQKLQGRVTMTTDTSTSTAYMELRSLRSDDTAVYYCARGRPSSSWGNWFDPWGQGTTVTVSS
VL: EIVLTQSPGTLSLSPGERATLSCRASQSVSSSFLAWYQQKPGQAPRLLIYGASSRATGIPDRFSGSGSGTDFTLTISRLEPEDFAVYYCQQAVSLPWTFGGGTKVEIK
notes: huIgG1; also called TI-67; ADI-19143
- binding result (human TREM2 on BWZ cells): no binding
- binding result (mouse TREM2 on BWZ cells): no binding

B13: T1-2 (antibody, IgG1, V domains shown)
VH: QVQLVQSGAEVKKPGSSVKVSCKASGGTFSSYAISWVRQAPGQGLEWMGGIIPIFGTANYAQKFQGRVTITADESTSTAYMELSSLRSEDTAVYYCAREGGPRGASFNWFDPWGQGTLVTVSS
VL: B12 VL with F33Y, A92Y, V93L, S94G, L95F, W97P
notes: huIgG1; also called TI-2; ADI-19068
- binding result (human TREM2 on BWZ cells): no binding
- binding result (mouse TREM2 on BWZ cells): no binding

B14: T1-59 (antibody, IgG1, V domains shown)
VH: QVQLQESGPGLVKPSETLSLTCAVSGYSISSGYYWAWIRQPPGKGLEWIGSIYHSGSTYYNPSLKSRVTISVDTSKNQFSLKLSSVTAADTAVYYCARDLGGYEGAFDPWGQGTLVTVSS
VL: not shown
notes: huIgG1; also called TI-59; ADI-19135
- binding result (human TREM2 on BWZ cells): no binding
- binding result (mouse TREM2 on BWZ cells): no binding

B15: T1-76 (antibody, IgG1, V domains shown)
VH: not shown
VL: DIQMTQSPSTLSASVGDRVTITCRASQSISSWLAWYQQKPGKAPKLLIYDASSLESGVPSRFSGSGSGTEFTLTISSLQPDDFATYYCQQHSTYSWTFGGGTKVEIK
notes: huIgG1; also called TI-76; ADI-19153
- binding result (human TREM2 on BWZ cells): no binding
- binding result (mouse TREM2 on BWZ cells): no binding

B16: T1-77 (antibody, IgG1, V domains shown)
VH: QVQLQESGPGLVKPSETLSLTCAVSGYSISSGYYWAWIRQPPGKGLEWIGSIYHSGSTYYNPSLKSRVTISVDTSKNQFSLKLSSVTAADTAVYYCARGGPYPWSGWFDPWGQGTLVTVSS
VL: EIVMTQSPATLSVSPGERATLSCRASQSVGSNLAWYQQKPGQAPRLLIYGASTRATGIPARFSGSGSGTEFTLTISSLQSEDFAVYYCQQHDVWPYTFGGGTKVEIK
notes: huIgG1; also called TI-77; ADI-19154
- binding result (human TREM2 on BWZ cells): no binding
- binding result (mouse TREM2 on BWZ cells): no binding

B17: T1-4 (antibody, IgG1, V domains shown)
VH: QVQLVQSGAEVKKPGSSVKVSCKASGGTFSSYAISWVRQAPGQGLEWMGGIIPIFGTANYAQKFQGRVTITADESTSTAYMELSSLRSEDTAVYYCARHYYYGYAYFDLWGRGTLVTVSS
VL: B16 VL with G30S, H91F, D92N, V93N, W94H, Y96I
notes: huIgG1; also called TI-4; ADI-19070
- binding result (human TREM2 on BWZ cells): no binding
- binding result (mouse TREM2 on BWZ cells): no binding

B18: T1-5 (antibody, IgG1, V domains shown)
VH: QVQLVQSGAEVKKPGASVKVSCKASGYTFTSYYMHWVRQAPGQGLEWMGVINPSGGSTSYAQKFQGRVTMTRDTSTSTVYMELSSLRSEDTAVYYCARESDGIDSYFDYWGQGTLVTVSS
VL: not shown
notes: huIgG1; also called TI-5; ADI-19071
- binding result (human TREM2 on BWZ cells): no binding
- binding result (mouse TREM2 on BWZ cells): no binding

B19: T1-64 (antibody, IgG1, V domains shown)
VH: QLQLQESGPGLVKPSETLSLTCTVSGGSISSSSYYWGWIRQPPGKGLEWIGSISYSGSTYYNPSLKSRVTISVDTSKNQFSLKLSSVTAADTAVYYCARYYSPYGMDVWGQGTTVTVSS
VL: not shown
notes: huIgG1; also called TI-64; ADI-19140
- binding result (human TREM2 on BWZ cells): no binding
- binding result (mouse TREM2 on BWZ cells): no binding

B20: T1-73 (antibody, IgG1, V domains shown)
VH: B10 VH with G30D, G99A, R102M, T103Y, S104G, H105Y, L106F, I108L, Q111R, M114S
VL: DIQMTQSPSTLSASVGDRVTITCRASQSISSWLAWYQQKPGKAPKLLIYKASSLESGVPSRFSGSGSGTEFTLTISSLQPDDFATYYCQQYRTYPTFGGGTKVEIK
notes: huIgG1; also called TI-73; ADI-19149
- binding result (human TREM2 on BWZ cells): no binding
- binding result (mouse TREM2 on BWZ cells): no binding

B21: T1-74 (antibody, IgG1, V domains shown)
VH: B10 VH with G30D, R102T, T103R, S104G, H105Y, L106F, I108L, Q111R, M114L
VL: B15 VL with D50K, T93L, Y94L, W96I
notes: huIgG1; also called TI-74; ADI-19151
- binding result (human TREM2 on BWZ cells): no binding
- binding result (mouse TREM2 on BWZ cells): no binding

B22: T1-63 (antibody, IgG1, V domains shown)
VH: QVQLQESGPGLVKPSETLSLTCAVSGYSISSGYYWGWIRQPPGKGLEWIGSIYHSGNTYYNPSLKSRVTISVDTSKNQFSLKLSSVTAADTAVYYCARELYAYSSPMFYGMDVWGRGTTVTVSS
VL: DIQMTQSPSSLSASVGDRVTITCRASQSISRYLNWYQQKPGKAPKLLIYAASSLQSGVPSRFSGSGSGTDFTLTISSLQPEDFATYYCQQLYHAPPITFGGGTKVEIK
notes: huIgG1; also called TI-63; ADI-19139
- binding result (human TREM2 on BWZ cells): no binding
- binding result (mouse TREM2 on BWZ cells): no binding

B23: T1-79 (antibody, IgG1, V domains shown)
VH: QLQLQESGPGLVKPSETLSLTCTVSGGSISSSSYYWGWIRQPPGKGLEWIGSIYYSGSTYYNPSLKSRVTISVDTSKNQFSLKLSSVTAADTAVYYCARLGDGYRIWADYWGQGTLVTVSS
VL: not shown
notes: huIgG1; also called TI-79; ADI-19156
- binding result (human TREM2 on BWZ cells): no binding
- binding result (mouse TREM2 on BWZ cells): no binding
